Assay results reported in article PMC6542021.

Tests used:
[1] = biological target: FcγRIII CD16 on NK cells (human (endogenous in NK cells of healthy donors)) (UniProt P08637); experiment: FACS; NK cells within PBMC
[2] = biological target: FcγRIII CD16 on NK cells (human (endogenous in NK cells of healthy donors)) (UniProt P08637); experiment: flow cytometry on cells; PBMC of healthy donors incubated with the indicated concentrations of NKG2D-Fc-ADCC, followed by an anti-human PE conjugate; EC50 from MFI by a sigmoidal dose-response curve (GraphPad Prism); one representative experiment of three
CD3 (Homo sapiens) = experiment: FACS; T cells within PBMC; settings: other; Only the NKG2D limits and the CH2 changes are printed. UCHT1 VH/VL are taken from the 1XIW scFv complex (entity order VL=3, VH=4 from memory). Human CH1/hinge and human C-kappa are assumed (KappaSelect purification, anti-human PE detection). CH2 end (EU 340) is by convention. G236 (P01857 119) is deleted; EU number = P01857 number + 117. Junction residues are not printed. Fab interchain disulfide; modification not given
CD3 (Homo sapiens), sequence (P07766 23-207, chain 1 of 3): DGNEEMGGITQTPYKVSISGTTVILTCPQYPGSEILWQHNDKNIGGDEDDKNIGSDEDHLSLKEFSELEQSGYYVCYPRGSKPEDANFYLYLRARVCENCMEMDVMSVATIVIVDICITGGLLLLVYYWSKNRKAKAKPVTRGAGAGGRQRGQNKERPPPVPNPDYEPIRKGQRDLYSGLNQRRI
CD3 (Homo sapiens), sequence (P04234 22-171, chain 2 of 3, further chain): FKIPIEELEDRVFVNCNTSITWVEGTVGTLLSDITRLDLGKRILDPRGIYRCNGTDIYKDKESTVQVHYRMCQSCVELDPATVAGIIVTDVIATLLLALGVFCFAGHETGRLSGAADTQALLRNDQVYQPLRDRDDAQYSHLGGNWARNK
CD3 (Homo sapiens), sequence (P09693 23-182, chain 3 of 3, further chain): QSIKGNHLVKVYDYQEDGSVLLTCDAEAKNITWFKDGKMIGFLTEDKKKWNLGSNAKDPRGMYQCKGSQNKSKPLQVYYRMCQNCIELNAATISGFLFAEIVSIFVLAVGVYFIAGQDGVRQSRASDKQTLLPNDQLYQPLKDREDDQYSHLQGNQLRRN

UniProt P08637, sequence (P08637 17-254): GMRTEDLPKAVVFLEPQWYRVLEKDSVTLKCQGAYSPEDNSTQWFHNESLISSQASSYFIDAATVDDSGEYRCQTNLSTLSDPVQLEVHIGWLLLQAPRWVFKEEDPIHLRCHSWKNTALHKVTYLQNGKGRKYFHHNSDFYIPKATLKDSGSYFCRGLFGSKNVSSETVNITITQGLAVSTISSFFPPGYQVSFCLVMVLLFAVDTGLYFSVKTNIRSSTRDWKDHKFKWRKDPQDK

Molecule “NKG2D-CD16 bispecific fusion protein (from UniProt P26718 78-216)” has an EC50 [1] of 2.2 nM.

“NKG2D-Fc-ADCC fusion protein (from UniProt P26718 73-216) (Fc fusion)” was tested, and the EC50 [2] was 20 nM.

B1: NKG2D-CD3 bispecific fusion protein, P26718 78-216 (protein)
chain 1: EVQLQQSGPELVKPGASMKISCKASGYSFTGYTMNWVKQSHGKNLEWMGLINPYKGVSTYNQKFKDKATLTVDKSSSTAYMELLSLTSEDSAVYYCARSGYYGDSDWYFDVWGQGTTLTVFSASTKGPSVFPLAPSSKSTSGGTAALGCLVKDYFPEPVTVSWNSGALTSGVHTFPAVLQSSGLYSLSSVVTVPSSSLGTQTYICNVNHKPSNTKVDKKVEPKSCDKTHTSPPSPAPPVAGPSVFLFPPKPKDTLMISRTPEVTCVVVGVSHEDPEVKFNWYVDGVEVHNAKTKPREEQYQSTYRVVSVLTVLHQDWLNGKEYKCKVSNKQLPSPIEKTISKAKFLNSLFNQEVQIPLTESYCGPCPKNWICYKNNCYQFFDESKNWYESQASCMSQNASLLKVYSKEDQDLLKLVKSYHWMGLVHIPTNGSWQWEDGSILSPNLLTIIEMQKGDCALYASSFKGYIENCSTPNTYICMQRTV
chain 2: MDIQMTQTTSSLSASLGDRVTISCRASQDIRNYLNWYQQKPDGTVKLLIYYTSRLHSGVPSKFSGSGSGTDYSLTISNLEQEDIATYFCQQGNTLPWTFAGGTKLEIKRTVAAPSVFIFPPSDEQLKSGTASVVCLLNNFYPREAKVQWKVDNALQSGNSQESVTEQDSKDSTYSLSSTLTLSKADYEKHKVYACEVTHQGLSSPVTKSFNRGEC
In the case of B1, the EC50 (CD3 (Homo sapiens)) is reported as 2.1 nM.
